Measurements: publication PMC8626645 (Molecular Pharmacology, 2021)

Legend:
[1] = in vivo; cited from earlier work
Description: Pathologic increases in blood glucose, the central metabolic defect in T2D, occur chiefly because of failure of pancreatic β cells to release enough of the glucoregulatory hormone insulin and overweight-related tissue resistance to insulin action.

[2] = target: SNAP-GLP-1R (HEK293-SNAP-GLP-1R cells) (UniProt P43220); assay: FRET or BRET
Sequence of UniProt P43220 (P43220 24-463): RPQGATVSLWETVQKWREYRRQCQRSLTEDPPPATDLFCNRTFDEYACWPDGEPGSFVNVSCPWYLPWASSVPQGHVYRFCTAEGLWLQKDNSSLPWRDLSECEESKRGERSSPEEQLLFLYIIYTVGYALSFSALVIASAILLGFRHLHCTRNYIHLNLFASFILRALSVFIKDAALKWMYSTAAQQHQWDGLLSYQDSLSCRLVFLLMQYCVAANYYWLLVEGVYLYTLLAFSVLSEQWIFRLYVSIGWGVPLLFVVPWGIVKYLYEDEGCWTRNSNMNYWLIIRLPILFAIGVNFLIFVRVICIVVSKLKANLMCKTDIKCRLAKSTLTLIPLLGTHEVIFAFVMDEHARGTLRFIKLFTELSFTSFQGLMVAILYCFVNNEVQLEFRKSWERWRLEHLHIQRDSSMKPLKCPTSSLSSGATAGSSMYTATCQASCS

Substance | inactivation in the circulation [1] | Log Ki (M) [2] [log M]
GLP-1(7-36)NH2: the endogenous ligand for GLP-1R | enzymatically inactivated in the circulation within minutes | –
exendin-4 (from UniProt P26349 48-87) (peptide) | – | -9.2
